B1: human Drp1 isoform 5 (natural protein)
chain: MEALIPVINKLQDVFNTVGADIIQLPQIVVVGTQSSGKSSVLESLVGRDLLPRGTGIVTRRPLILQLVHVSQEDKRKTTGEENDPATWKNSRHLSKGVEAEEWGKFLHTKNKLYTDFDEIRQEIENETERISGNNKGVSPEPIHLKIFSPNVVNLTLVDLPGMTKVPVGDQPKDIELQIRELILRFISNPNSIILAVTAANTDMATSEALKISREVDPDGRRTLAVITKLDLMDAGTDAMDVLMGRVIPVKLGIIGVVNRSQLDINNKKSVTDSIRDEYAFLQKKYPSLANRNGTKYLARTLNRLLMHHIRDCLPELKTRINVLAAQYQSLLNSYGEPVDDKSATLLQLITKFATEYCNTIEGTAKYIETSELCGGARICYIFHETFGRTLESVDPLGGLNTIDILTAIRNATGPRPALFVPEVSFELLVKRQIKRLEEPSLRCVELVHEEMQRIIQHCSNYSTQELLRFPKLHDAIVEVVTCLLRKRLPVTNEMVHNLVAIELAYINTKHPDFADACGLMNNNIEEQRRNRLARELPSAVSRDKSSKVPSALAPASQEPSPAASAEADGKLIQDSRRETKNVASGGGGVGDGVQEPTTGNWRGMLKTSKAEELLAEEKSKPIPIMPASPQKGHAVNLLDVPVPVARKLSAREQRDCEVIERLIKSYFLIVRKNIQDSVPKAVMHFLVNHVKDTLQSELVGQLYKSSLLDDLLTESEDMAQRRKEAADMLKALQGASQIIAEIRETHLW
B2: human Drp1 isoform 4 (natural protein)
chain: MEALIPVINKLQDVFNTVGADIIQLPQIVVVGTQSSGKSSVLESLVGRDLLPRGTGIVTRRPLILQLVHVSQEDKRKTTGEENGVEAEEWGKFLHTKNKLYTDFDEIRQEIENETERISGNNKGVSPEPIHLKIFSPNVVNLTLVDLPGMTKVPVGDQPKDIELQIRELILRFISNPNSIILAVTAANTDMATSEALKISREVDPDGRRTLAVITKLDLMDAGTDAMDVLMGRVIPVKLGIIGVVNRSQLDINNKKSVTDSIRDEYAFLQKKYPSLANRNGTKYLARTLNRLLMHHIRDCLPELKTRINVLAAQYQSLLNSYGEPVDDKSATLLQLITKFATEYCNTIEGTAKYIETSELCGGARICYIFHETFGRTLESVDPLGGLNTIDILTAIRNATGPRPALFVPEVSFELLVKRQIKRLEEPSLRCVELVHEEMQRIIQHCSNYSTQELLRFPKLHDAIVEVVTCLLRKRLPVTNEMVHNLVAIELAYINTKHPDFADACGLMNNNIEEQRRNRLARELPSAVSRDKSSKVPSALAPASQEPSPAASAEADGKVASGGGGVGDGVQEPTTGNWRGMLKTSKAEELLAEEKSKPIPIMPASPQKGHAVNLLDVPVPVARKLSAREQRDCEVIERLIKSYFLIVRKNIQDSVPKAVMHFLVNHVKDTLQSELVGQLYKSSLLDDLLTESEDMAQRRKEAADMLKALQGASQIIAEIRETHLW
B3: human Drp1 isoform 3 (natural protein)
chain: MEALIPVINKLQDVFNTVGADIIQLPQIVVVGTQSSGKSSVLESLVGRDLLPRGTGIVTRRPLILQLVHVSQEDKRKTTGEENGVEAEEWGKFLHTKNKLYTDFDEIRQEIENETERISGNNKGVSPEPIHLKIFSPNVVNLTLVDLPGMTKVPVGDQPKDIELQIRELILRFISNPNSIILAVTAANTDMATSEALKISREVDPDGRRTLAVITKLDLMDAGTDAMDVLMGRVIPVKLGIIGVVNRSQLDINNKKSVTDSIRDEYAFLQKKYPSLANRNGTKYLARTLNRLLMHHIRDCLPELKTRINVLAAQYQSLLNSYGEPVDDKSATLLQLITKFATEYCNTIEGTAKYIETSELCGGARICYIFHETFGRTLESVDPLGGLNTIDILTAIRNATGPRPALFVPEVSFELLVKRQIKRLEEPSLRCVELVHEEMQRIIQHCSNYSTQELLRFPKLHDAIVEVVTCLLRKRLPVTNEMVHNLVAIELAYINTKHPDFADACGLMNNNIEEQRRNRLARELPSAVSRDKVASGGGGVGDGVQEPTTGNWRGMLKTSKAEELLAEEKSKPIPIMPASPQKGHAVNLLDVPVPVARKLSAREQRDCEVIERLIKSYFLIVRKNIQDSVPKAVMHFLVNHVKDTLQSELVGQLYKSSLLDDLLTESEDMAQRRKEAADMLKALQGASQIIAEIRETHLW
B4: human Drp1 isoform 6 (natural protein)
chain: MEALIPVINKLQDVFNTVGADIIQLPQIVVVGTQSSGKSSVLESLVGRDLLPRGTGIVTRRPLILQLVHVSQEDKRKTTGEENDPATWKNSRHLSKGVEAEEWGKFLHTKNKLYTDFDEIRQEIENETERISGNNKGVSPEPIHLKIFSPNVVNLTLVDLPGMTKVPVGDQPKDIELQIRELILRFISNPNSIILAVTAANTDMATSEALKISREVDPDGRRTLAVITKLDLMDAGTDAMDVLMGRVIPVKLGIIGVVNRSQLDINNKKSVTDSIRDEYAFLQKKYPSLANRNGTKYLARTLNRLLMHHIRDCLPELKTRINVLAAQYQSLLNSYGEPVDDKSATLLQLITKFATEYCNTIEGTAKYIETSELCGGARICYIFHETFGRTLESVDPLGGLNTIDILTAIRNATGPRPALFVPEVSFELLVKRQIKRLEEPSLRCVELVHEEMQRIIQHCSNYSTQELLRFPKLHDAIVEVVTCLLRKRLPVTNEMVHNLVAIELAYINTKHPDFADACGLMNNNIEEQRRNRLARELPSAVSRDKSSKVPSALAPASQEPSPAASAEADGKVASGGGGVGDGVQEPTTGNWRGMLKTSKAEELLAEEKSKPIPIMPASPQKGHAVNLLDVPVPVARKLSAREQRDCEVIERLIKSYFLIVRKNIQDSVPKAVMHFLVNHVKDTLQSELVGQLYKSSLLDDLLTESEDMAQRRKEAADMLKALQGASQIIAEIRETHLW
B5: human Drp1 isoform 2 (natural protein)
chain: MEALIPVINKLQDVFNTVGADIIQLPQIVVVGTQSSGKSSVLESLVGRDLLPRGTGIVTRRPLILQLVHVSQEDKRKTTGEENGVEAEEWGKFLHTKNKLYTDFDEIRQEIENETERISGNNKGVSPEPIHLKIFSPNVVNLTLVDLPGMTKVPVGDQPKDIELQIRELILRFISNPNSIILAVTAANTDMATSEALKISREVDPDGRRTLAVITKLDLMDAGTDAMDVLMGRVIPVKLGIIGVVNRSQLDINNKKSVTDSIRDEYAFLQKKYPSLANRNGTKYLARTLNRLLMHHIRDCLPELKTRINVLAAQYQSLLNSYGEPVDDKSATLLQLITKFATEYCNTIEGTAKYIETSELCGGARICYIFHETFGRTLESVDPLGGLNTIDILTAIRNATGPRPALFVPEVSFELLVKRQIKRLEEPSLRCVELVHEEMQRIIQHCSNYSTQELLRFPKLHDAIVEVVTCLLRKRLPVTNEMVHNLVAIELAYINTKHPDFADACGLMNNNIEEQRRNRLARELPSAVSRDKLIQDSRRETKNVASGGGGVGDGVQEPTTGNWRGMLKTSKAEELLAEEKSKPIPIMPASPQKGHAVNLLDVPVPVARKLSAREQRDCEVIERLIKSYFLIVRKNIQDSVPKAVMHFLVNHVKDTLQSELVGQLYKSSLLDDLLTESEDMAQRRKEAADMLKALQGASQIIAEIRETHLW
B6: human Drp1 isoform 8 (natural protein)
chain: MEALIPVINKLQDVFNTVGADIIQLPQIVVVGTQSSGKSSVLESLVGRDLLPRGTGIVTRRPLILQLVHVSQEDKRKTTGEENDPATWKNSRHLSKGVEAEEWGKFLHTKNKLYTDFDEIRQEIENETERISGNNKGVSPEPIHLKIFSPNVVNLTLVDLPGMTKVPVGDQPKDIELQIRELILRFISNPNSIILAVTAANTDMATSEALKISREVDPDGRRTLAVITKLDLMDAGTDAMDVLMGRVIPVKLGIIGVVNRSQLDINNKKSVTDSIRDEYAFLQKKYPSLANRNGTKYLARTLNRLLMHHIRDCLPELKTRINVLAAQYQSLLNSYGEPVDDKSATLLQLITKFATEYCNTIEGTAKYIETSELCGGARICYIFHETFGRTLESVDPLGGLNTIDILTAIRNATGPRPALFVPEVSFELLVKRQIKRLEEPSLRCVELVHEEMQRIIQHCSNYSTQELLRFPKLHDAIVEVVTCLLRKRLPVTNEMVHNLVAIELAYINTKHPDFADACGLMNNNIEEQRRNRLARELPSAVSRDKVASGGGGVGDGVQEPTTGNWRGMLKTSKAEELLAEEKSKPIPIMPASPQKGHAVNLLDVPVPVARKLSAREQRDCEVIERLIKSYFLIVRKNIQDSVPKAVMHFLVNHVKDTLQSELVGQLYKSSLLDDLLTESEDMAQRRKEAADMLKALQGASQIIAEIRETHLW

Biological target: the molecule itself
Assay: mass photometry

Stoichiometry N, 2:
B1, B2, B3, B4, B5, B6
